Assay: High-throughput protein phase separation
Format: physicochemical
Settings: 25 μM Hsp90α; 96 LLPS-inducing conditions, sum of averaged grades of 15 subzones

Substance: Hsp90α: full-length human Hsp90α (UniProt P07900), N-terminal 6×-His tag, expressed in E. coli
- phase separation score (PPS score): 3.1

Source: paper PMC11234873 (Chemical Science, 2024)
